Laboratory results reported in patent publication US12558435B2, “Transient inhibition of p53 in gene therapy” (Ospedale San Raffaele S.R.L., priority 2018, dated 2026).

B1: E4orf6/7: adenoviral protein from adenovirus serotype 5 E4 gene (SEQ ID No. 2), delivered as mRNA (protein)
chain: MTTSGVPFGMTLRPTRSRLSRRTPYSRDRLPPFETETRATILEDHPLLPECNTLTMHNAWTSPSPPVKQPQVGQQPVAQQLDSDMNLSELPGEFINITDERLARQETVWNITPKNMSVTHDMMLFKASRGERTVYSVCWEGGGRLNTRVL
modifications: delivered as mRNA; example amino acid sequence of Ad5-E4orf6/7
B2: GSE56: p53 dominant negative peptide (SEQ ID No. 9), transiently overexpressed from electroporated mRNA (protein)
chain: MDGWCPGRDRRTEEENFRKKEEHCPELPPGSAKRALPTSTSSSPQQKKKPLDGEYFTLKIRGRERFEMFRELNEALELKDARAAEESGDSRAHSSYPKIVS
modifications: amino acid sequence of GSE56

Assays:
[1] = system: human CD34+ cells; assay type: cell-based
Experimental: CD34+ cells were either freshly purified from human CB after obtaining informed consent and upon approval by the Ospedale San Raffaele Bioethical Committee, or purchased frozen from Lonza. CD34+ cells were edited according to a previously optimized protocol (Schiroli et al. 2017 supra).
Briefly, 5×10^5 CD34+ cells/ml were stimulated in serum-free StemSpan medium (StemCell Technologies) supplemented with penicillin, streptomycin, glutamine, 1 μM SR-1 (Biovision), […] (STEMCell Technologies), 10 μM PGE2 added only at the beginning of the culture (Cayman), and human early-acting cytokines (SCF 100 ng/ml, Flt3-L 100 ng/ml, TPO 20 ng/ml, and IL-6 20 ng/ml; all purchased from Peprotech). After 3 days of prestimulation, cells were washed with PBS and electroporated using P3 Primary Cell 4D-Nucleofector X Kit and program EO-100 (Lonza). Cells were electroporated with 2.5-1.25 μM of RNPs.
Transduction with AAV6 was performed at a dose of 1-2×10^4 vg/cell 15′ after electroporation. GSE56 mRNA was utilized were indicated at a dose of 150 μg/ml. Gene editing efficiency was measured from cultured cells in vitro 3 days after electroporation by flow cytometry measuring the percentage of cells expressing the GFP marker or by digital droplet PCR analysis designing primers and probe on the junction between the vector sequence and the targeted locus and on control sequences utilized as normalizer as previously described (Schiroli et al. 2017 supra).
For HDR ddPCR, primers and probes were designed on the junction between the vector sequence and the targeted locus and on control sequences used for normalization (human TTC5 genes). Thermal conditions for annealing and extension were adjusted for each specific application as follows: AAVS1/Intron 1 IL2RG HDR 3′ integration junction ddPCR: 55° C. for 30 sec, 72° C. for 2 min. Primers and probes for PCR and ddPCR amplifications are shown below.
CD34^+ cells were purchased frozen from Lonza. CD34^+ cells were edited according to a previously optimised protocol (Schiroli, G. et al (2017) Sci Transl Med 9). Briefly, 1-5×10^5 CD34^+ cells/ml were stimulated in serum-free StemSpan medium (StemCell Technologies) supplemented with penicillin, streptomycin, glutamine, 1 μM of the arylhydrocarbon receptor antagonist SR-1 (Biovision), […] of the pyrimidoindole-derivative UM171 (STEMCell Technologies), 10 μM of the 15-hydroxy PGDH competitive inhibitor dmPGE-2 added only at the beginning of the culture (Cayman), and human early-acting cytokines (SCF 100 ng/ml, Flt3-L 100 ng/ml, TPO 20 ng/ml, and IL-6 20 ng/ml; all purchased from Peprotech). After 3 days of pre-stimulation, cells were washed with PBS and electroporated using P3 Primary Cell 4D-Nucleofector X Kit and program EO-100 (Lonza). Cells were electroporated with 1-1.2 μM of RNPs. Where specified, electroporation mixture was supplemented with Ad5-E4orf1, Ad5-E4orf6/7 and GSE56/Ad5-E4orf6/7 mRNAs, which were respectively utilized at doses of 120, 80 and 200 μg/ml, or Ad5-E1B55K and Ad5-E4orf6 mRNAs were used at 120 and 80 μg/ml. All other adenoviral protein variants were used at standard dose 120 μg/ml. Transduction with AAV-6 was performed 15 min post-electroporation at dose of 1-5×10^4 vg/cell. Where specified, CD34+ cells were stimulated for shorter time in culture (0, 24 or 48 hours) and edited as described above. Gene editing efficiency was measured from cultured cells in vitro at 4 days post-editing by flow cytometry measuring the percentage of cells expressing the GFP reporter gene or by digital droplet PCR analysis designing primers and probe on the junction between the vector sequence and the targeted locus and on control sequence utilised as normaliser as previously described (Schiroli, G. et al (2017) Sci Transl Med 9) and Schiroli et al., Cell Stem Cell 2019. […]

[2] = system: p53-target genes (CDKN1A, PHLDA3, RPS27L, APOBEC3H); test: TaqMan expression of p53-target genes in edited CD34+ cells; assay type: cell-based, human; details: 24 hrs after electroporation; FIG. 3B
Excerpt: For gene expression analyses, total RNA was extracted using the RNeasy Plus Micro Kit (QIAGEN). cDNA was synthetized with SuperScript VILO IV cDNA Synthesis Kit (Invitrogen) and used for Q-PCR in a Viia7 Real-time PCR thermal cycler using TaqMan Gene Expression Assays (Applied Biosystems) mapping to CDKN1A, RPS27L, PHLDA3, APOBEC3H, and HPRT as normalizer. The relative expression of each gene was first normalized to HPRT expression and then represented as fold change relative to the mock-treated sample.

[3] = system: human CD34+ cells; test: Cell growth curve of edited CD34+ cells; assay type: cell-based
[4] = system: HDR-edited human cells in NSG mice; test: Barcoding-based clonal tracking of edited cells in transplanted NSG mice; assay type: in vivo; details: AAVS1; FIG. 12E
Excerpt: The barcoded AAV6 donor template targeting the AAVS1 locus was obtained by subcloning the degenerated sequence into the previously reported AAVS1 AAV6 transfer vector plasmid downstream of the polyadenylation sequence. Briefly, a ssODN embedding the random sequence flanked by the unique cloning restriction sites (Bsu36l and Sphl) was obtained from Sigma Aldrich. The degenerated region was designed to avoid any undesired cutting by cloning restriction enzymes. To generate the complementary strand, 50 pmol of the ssODN were amplified with 10 cycles of PCR with Easy-A High-Fidelity enzyme (Agilent Technologies) using the appropriate forward and reverse primers according to the manufacturer's instructions. The amplified product was purified with MinElute PCR Purification kit (QIAGEN), digested with the restriction enzymes and checked by capillary electrophoresis. 2 μg of the Bsu36l/Sphl-digested AAVS1 HDR donor template were ligated with the digested insert (molar ratio 1:7) using T4 DNA Ligase (NEB) by scaling up the manufacturer's protocol. […]
PCR amplicons for each individual sample were generated by one-step PCR using Taq G2 Hot Start Polymerase (Promega). […] PCR library amplicons were separately purified using MinElute PCR Purification kit (QIAGEN) and quality was assessed by Agilent Tapestation (Agilent Technologies). […]

Molecule | mean increase in the percentage of primitive HSPC expressing GFP (CD34+CD133+CD90+GFP+) ([1]; AAVS1, CB CD34+, vs standard, all AAV6 doses, FIG. 6B) | increase in the percentage of targeted CD90+ cells ([1]; AAVS1, cells for NSG transplantation, FIG. 10B) | editing efficiency (GFP expression) at IL2RG locus ([1]; IL2RG, FIG. 14I) | HDR edited alleles at AAVS1 locus ([1]; digital PCR in bulk culture, FIG. 14D) | HDR-events integrations increase in AAVS1 locus of HSPCs ([1]; discussion) | editing efficiency by molecular analyses on genomic DNA ([1]; human HSPC, FIG. 8B) | mean increase in the fraction of GFP+ cells compared to the standard ([1]; side-by-side, AAVS1, 4 days, FIG. 7A) | editing efficiency with editing at day 0 to day 2 post-thawing ([1]; total bulk and CD90+ fraction, AAVS1, FIG. 14K) | HDR-mediated integration (genomic DNA) ([1]; vs standard, FIG. 10D) | increase of GFP expression compared to standard RNP+AAV6 ([1]; AAVS1, most primitive compartment (CD34+133+90+ / CD90+), 96 hours, FIG. 14C) | HDR-mediated integration (GFP+ cells) in the CD34+ 133+ 90+ fraction, mean ([1]; AAVS1 or IL2RG editing, 3 days) | overall efficiency of DNA repair ([1]; AAVS1 or IL2RG editing, 3 days, FIG. 3C) | HDR-mediated integration at the targeted locus ([1]; AAVS1 or IL2RG editing, ddPCR, 3 days, FIG. 3C left) | amplitude of the p53-dependent transcriptional response (downstream target genes) [2] | expansion of treated HSPC ([3]; AAVS1 edited cells, FIG. 3D) | cell growth compared to standard RNP+AAV6 ([3]; days post-editing, FIG. 14B) | number of dominant clones in haematopoietic organs, vs standard [4]
B1 | 1.5 fold | 1.4 fold | significant editing efficiency increase | significantly increased | 1.5 fold | reproducibly able to boost editing | 1.45 fold | editing efficiency was increased | increase levels of HDR-mediated integration | – | – | – | – | – | – | – | –
B2 | – | – | – | – | – | – | – | – | – | 1.1 fold | 42% | did not negatively impact overall efficiency of DNA repair | promoted HDR-mediated integration at the targeted locus | reduce the amplitude of the p53-dependent transcriptional response | higher expansion | about 2 fold | 6.5 fold
